Experimental data from the DeepSol protein solubility set.

Experiment: soluble on expression in E. coli; label from the status in PepcDB or PDB records

Row | Sequence | soluble on expression in E. coli
1 | MNTQKRQQIRTEIRKIRANLTALQQHQAEQSVTQHALNLIEQRQAKNIALYFSFDGEISTKALIQSLWMQNKNVYLPVLHPFTKHYLLFLRYLPDTPMKQNQFGIWEPKLNVQNVLPLNELDILFTPLVAFDKKGNRLGMGGGFYDRTLQNWQNKSFIPVGLAYQCQQVENLPTEHWDVPLFDILVGLEHHHHHH | not soluble
2 | MSLKEISVVLVGIGGYGNKYVEYILREGREKGVRISGVVDPYPQNSRFYDELRSLNVPMYNTLEEFYSHHTADLAIISSPIHYHCEQTCTAVRNGSHVLCEKPAAATVKEVKKMIECREKYGKIVAIGYQWSYNPAVLKLKEDILAGKFGKPVLFKTLVLWPRDTAYYRRNSWAGKLKVNNRWVLDSVAGNATAHFLHNMLFLLGEKMEESAYPESMVAELYRANDIESFDTCALKMTVRKIPVLFFATHAVKERKGPVFEYRFEKARVICNYPEYPESEENLLVVYEDGRKEIYGPTDHGSMRKLWVVVDAARGRKEFICTLESAMAHTIAINGAHVSMKEIQDFPTELKRVEGEPPMIWVEGLKEAMERAYEEEKIFSELNLPWAKRGEEVKLENFEGLEGEITEGHHHHHH | soluble
3 | MGSDKIHHHHHHMCTVQSNITSHVKKLEEELGVILLNRHNPVTLTNAGHQLHSYAVQMIALHNKAKTIFREGDIDPNETIRLGSMETTAAIRLPQLLNECMQQHPNLPLELQTHPTGYLLNAVQQGEVDCAFVASKYVIPELYSFPVWQEQLVLVCPKQQIDFPDIATLAKTRFIAFRQGCSYRHAIELFLNDHSVPPSQIMEMGSLDGIVSCVELGVGFALLPKSYLNKVADKVSLSCFEINTESAHFTTYLVAQPPETWGSNLKQFICFIEQQFIQKCA | not soluble
4 | MKAVAINGYGTVGKRVADAIAQQDDMKVIGVSKTRPDFEARMALKKGYDLYVAIPERVKLFEKAGIEVAGTVDDMLDEADIVIDCTPEGIGAKNLKMYKEKGIKAIFQGGEKHEDIGLSFNSLSNYEESYGKDYTRVVSCNTTGLCRTLKPLHDSFGIKKVRAVIVRRGADPAQVSKGPINAIIPNPPKLPSHHGPDVKTVLDINIDTMAVIVPTTLMHQHNVMVEVEETPTVDDIIDVFEDTPRVILISAEDGLTSTAEIMEYAKELGRSRNDLFEIPVWRESITVVDNEIYYMQAVHQESDIVPENVDAVRAILEMEEDKYKSINKTNKAMNILQ | soluble
5 | MMKITDEKAEDVNLSTIKVVKRDGRLVTFDDQKIYDALIKAEQKIHDQVTPLTHQKVQSIVADVNREIAERFTNNVKIYEIQNIVEHTLLSNNEYALAEEYIHYRTQRDFERSKATD | not soluble
6 | MGHHHHHHSHKNVVHQLSVTLEDLYNGATRKLALQKNVICDKCEGRGGKKGAVECCPNCRGTGMQIRIHQIGPGMVQQIQSVCMECQGHGERISPKDRCKSCNGRKIVREKKILEVHIDKGMKDGQKITFHGEGDQEPGLEPGDIIIVLDQKDHAVFT | not soluble
7 | MGSDKIHHHHHHMDRIIEKLDHGWWVVSHEQKLWLPKGELPYGERANFDLVGQRALQIGEWQGEPVWLVQQQRRHDMGSVRQVIDLDVGLFQLAGRGVQLAEFYRSHKYCGYCGHEMYPSKTEWAMLCSHCRERYYPQIAPCIIVAIRRDDSILLAQHTRHRNGVHTVLAGFVEVGETLEQAVAREVMEESGIKVKNLRYVTSQPWPFPQSLMTAFMAEYDSGDIVIDPKELLEANWYRYDDLPLLPPPGTVARRLIEDTVAMCRAEYE | not soluble
8 | MNYPMIAGRVFGTPLLVDPVKGAAFLAGLGPRLVNGALELRGLEELAPDRVAEAGRIAPRASVLLDDAGDARREAGRPLYLVEGGVAVIEVTGTLVHRGGWIGQSSGTTSYEGLMAQISAAVADPSVRGIALEIDSYGGEVAGLFDLADAIRAARAVKPVRAFVAEAALSAAYAIASQAERIVLPRTGAVGSIGVLLVHADFSQAMADRGVAVTLIHAGRHKVDGNPYEALPEGVRADLQARVEASRALFAETVAAGRGARLSRQQALATEAQVLDGAAAVAAGLADEVSDLRRAFAAFRAELFDPHLTSPRAGTPAAAKETPTMTDETTTGAARGTAAEGSAPPMETAEGSGGGAPAANVAVAEAAELIEIGQQAARLGLAVDVADAMRRGLSAAALRRTVLDGLAARGDGADLVAHAPTAAAGPKESPLLAAARRTAEAQAASRRA | not soluble
9 | MKKVAIVGLGWLGMPLAMSLSARGWQVTGSKTTQDGVEAARMSGIDSYLLRMEPELVCDSDDLDALMDADALVITLPARRSGPGDEFYLQAVQELVDSALAHRIPRIIFTSSTSVYGDAQGTVKETTPRNPVTNSGRVLEELEDWLHNLPGTSVDILRLAGLVGPGRHPGRFFAGKTAPDGEHGVNLVHLEDVIGAITLLLQAPKGGHIYNICAPAHPARNVFYPQMARLLGLEPPQFRNSLDSGKGKIIDGSRICNELGFEYQYPDPLVMPLE | soluble
10 | MTNAALDDKTIVRDYFNSTGFDRWRRIYGDGQVNFVQKDIRVGHQQTVDSVVAWLVADGNLPGLLVCDAGCGVGSLSIPLAQAGALVYGSDISEKMVGEAQQKAQEVLAYGNQPTFMTQDLAQLGGKYDTVICLDVLIHYPTEEASAMISHLASLADRRLILSFAPKTLGLTVLKKIGGLFPGPSKTTRAYQHKEADIRKILGDNGFSIARTGMTSTRFYYSRILEAVRSLEHHHHHH | not soluble
11 | MKRVGKQTWVFDDGVYIQAAAAAVGPLEADGPLGSYFDVCHRDLYCGEATWELAERRLMREAVDCCLQKAGVSAEEVDLLLAGDLLNQNATSNYVARELPIPFLCLFGACSTSMQTLAAAAAFVAGGLADRALAATSSHNATAERQFRYPTELGVQKPKTATFTVTGAGAALVGRAPGRWRVRAATIGKVVDAGLKNPLDMGAAMAPAAADTIEQHFRDLGVSPGDYDLIVTGDLSRVGSVIVRELLAESGYDVTDVYNDCGLMIYRPDQKVFAGGSGCACSAVVTYGYLLQELARGTFRRLFVVATGALLSQTMVQQKQSIPAIAHGVVIEAAGQEPDLPP | not soluble
12 | MNLEHHSNHYQPTCSIEALQARAKLYQTIRTFFAERGVLEVETPIISQAGVTDVHLASVKALRHIEGKERTQYLQTSPEFAMKRLLASGSGPIYQLCKVFRDDEHGRKHNSEFTMLEWYRPEFDLKDLMHETADLLETCLKQRFDEIRPMILSYKHAFQDRLEINPLQATLKQLKDTADRVGLNLDLGNDRLAYIDLLFSHIVEPSLGFDTPVFLTDFPPEMASLAKVRIDEDGEEVAARFEVYIEGLELANAYDELLDANILRARFEADNLERKLQGLAEMPLDENLLAALPHMPACAGIALGVDRLLMIATRQLKIEQVIAFPAAIA | not soluble
13 | MILVGNGRLISQDSLNPYMEDGCVVINDNLIEDIGTTEEMKAKYPVHEFIDAGKKIIMPGLINSHMHIYSSFARGMAVPGKPSENFLEILNNLWWRLDKQLTLEDTKYSAYATYIECIKNGVTTVYDHHASPNAIEGSLFTISDVAKDLGIRTCLCYEVSDRDGGNTIQQGINENVNFIKYAQKDDTDMIKGMFGLHAAFTLSDDTLNKCASEMAGLDTGYHVHVAEGLADLQYNVDKYGKRVLERFNDFGVLKEKTIAVHCIYISAEEISFLNKTNTFVVHNPESNMGNAVGCSPAIELLKRGVTVGLGTDGYTSDMFESLKVANIIHKHHLKDPRVGFEESQTMLFDNNRKIAKAYYKNDLGVLKKGAYADVIVVDYIPHTPLTENTIGGHTIFGMSGRSVDTTIINGKVLMKDRKLINIDEESILAKSRELSQNLWNRI | not soluble
14 | ISRLLAGQLDFRSAIRSVAAEVAHIIPHDHLDVCVLLEDGNYHTAYETGIETAWGDLAGAPVVNSPIRSLLWGEVDFLLADDAMTDPRFHFDGAFKRPIVEQSLRSRLHVPMKVQGAIIAALSCSSQEAGAYTMEDVERARIIADLLTPYFFALRAAEQAQR | not soluble
15 | MTSSSSPSQDTKRLAQTYPEGLRADALMEEDVAWNRGNDSQWDGEQFDRSDRAALRRVAGLSTELEDVTEVEYRQLRLERVVLVGVWTSGTVQDAENSLAELAALAETAGALVLDGVVQRRDKPDAATYIGSGKAEELRDVVLHTGADTVICDGELSPGQLIHLEDVVKVKVIDRTALILDIFAQHAKSREGKAQVALAQMQYMLPRLRGWGQSLSRQMGGGKGGGLATRGPGETKIETDRRRIREKMAKMRREIAEMKTGREIKRQERKRHKVPSVAIAGYTNAGKSSLLNRLTGAGVLVENALFATLDPTVRRAETPSGRLYTLADTVGFVRHLPHHLVEAFRSTMEEVGDSDLILHVVDGSHPVPEEQLAAVREVIRDVGATDVPEIVVINKADMADPLVLQRLLRIEKRAIAVSARTGQNIDQLLALIDNELPRPSVEIEALVPYTHGKLVARAHDEGEVISEEHTPEGTLLKVRVHEELAAELAPYVPAPLALEHHHHHH | not soluble
16 | MEENKQRVKSMINILQLVAPGTPLREGIDNVLRAQTGGLIVLGYNEQIKSIVDGGFHINCAFSPASLYELAKMDGALILNETGSKILIANAQLVPDSSIDSIETGMRHRTAERVAKQTGSLVVAISQRRNVITLYQGNLRYTLKDIGVILTKANQAIQTLEKYKAVWNDGITNLGILEFEEVVTMSEVVHVLHSVEMVLRIKNEILSYIHELGTEGRLIRLQLTELLADLEAEAALLIKDYHQEKTQDHHQILKKLQDLANTQLLEDSDLVKLLGYPGQTSLEESVTPRGYRITSKISRVPPLIIENLINRFKTLQGVCRATINELDDVEGIGEVRAKKIREGLKRIQEHLYMSRHN | not soluble
17 | MKIQFNRFLTRSLLTAALTGAASMAAAATMEVYKSPTCGCCAKWVDHMRDNGFTVNIHDIGNDEARAEAGILPELGSCHTALVNGYAIEGHVPADDIKQLLKERPRAVGLSAPGMPHGSPGMETGRVDSYNVLLIRKPGDKRSATEIYNRYGPGKSGAAEKTSENSTTDSVLRLK | not soluble
18 | MTQQIKYKRVLLKLSGESLMGSDPFGINHDTIVQTVGEIAEVVKMGVQVGIVVGGGNIFRGVSAQAGSMDRATADYMGMMATVMNALALKDAFETLGIKARVQSALSMQQIAETYARPKAIQYLEEGKVVIFAAGTGNPFFTTDTAAALRGAEMNCDVMLKATNVDGVYTADPKKDPSATRYETITFDEALLKNLKVMDATAFALCRERKLNIVVFGIAKEGSLKRVITGEDEGTLVHC | soluble
19 | MNGNRAQPMNMPNEPHPKLKLEQYLGIQIKRQRQAQELKLADVARIAGISQGMLSKIENAQVSTSLDNLSRLCDVLGMPMSKLFSQYDQQGSSALLVRADEGLEVVRRGTEKGHTYHLLNHTRGPKKSFEAYMVTMDDASEEFPTFSHPGTEFLHLLEGELIYRHGNQLYPMQAGDSLTFDGDIPHGPEQLVQVPIKLLSIMNYGAQGD | not soluble
20 | MLSTGLDELVYRSNLIGSDRAVCNWGGGNTSMKTVEKDFRGREIAVMWVKGSGSDLATMGAKNFTGLNLEDIRPLIEREEMSDEEMVEYLGHCMIDRNHPRPSIETLLHAFLPFKHVDHTHPDAIISICCADNGKEIAKNLFGDRFVWVPYVRPGFSLSKLIAEGVQKNPHAELVLMEKHGLVVWGETAKESYDRTISVINEAEAYIRSRINESVIFGGGKLEHHHHHH | not soluble
21 | MNKENIIADAPSDVVKTVQQQVHLNQDEYKYLKQVEQILREGTRRDDRTGTGTISIFGMQSKYCLRNGTIPLLTTKRVYWKGVLEELLWFISGSTDGKLLMEKNVKIWEKNGDRAFLDNLGFTSREEGDLGPVYGFQWRHFGAKYVDCHTDYSGQGVDQLAEVIRQIKEQPDSRRIIMSAWNPSDLGQMVLPPCHTMCQFYVDNGELSCQLYQRSGDMGLGVPFNLASYGLLTHMIAKVCGLKPGTLVHTLGDAHVYSNHVDALKIQLDREPYAFPKIRFTRDVASIDDFTSDMIALDDYKCHPKIPMDMAV | soluble
